Test results from publication doi:10.1101/2022.08.30.505823 (bioRxiv, 2022).

What was measured:
[1] = molecular target: BIRC6 (human, wild type, recombinant) (human) (UniProt Q9NR09); assay: mass photometry; details: remark: other sources report otherwise
[2] = molecular target: BIRC6 (human, wild type, recombinant) (human) (UniProt Q9NR09); assay: cryo-EM structure; details: remark: other sources report otherwise
cryo-EM structure = molecular target: the molecule itself; assay: cryo-EM structure

Row | Molecule | stoichiometry N [1] | stoichiometry N [2] | stoichiometry N (cryo-EM structure)
1 | BIRC6 (human, wild type, recombinant), Q9NR09 1-4857 | 2 | 2 | 
2 | SMAC (natural protein) AVPIAQKSEPHSLSSEALMRRAVSLVTDSTSTFLSQTTYALIEAITEYTKAVYTLTSLYRQYTSLLGKMNSEEEDEVWQVIIGARAEMTSKHQEYLKLETTWMTAVGLSEMAAEAAYQTGADQASITARNHIQLVKLQVEEVHQLSRKAETKLAEAQIEELRQKTQEEGEERAESEQEAYLRED |  |  | 2
